# PMC3951589
# Molecular target: pIICASV-GP2(267–351) (not stated | CAS virus (CASV))
# Experiment: SEC
substance,measurement,value
pIICASV-GP2(267–351) (domain or fragment),stoichiometry N,3
